Source: the supplement of paper PMC9112550, “Optimization of the antimicrobial peptide Bac7 by deep mutational scanning” (BMC Biology, 2022)

System: Escherichia coli TOP10
Assay: shrunken log2 fold change of peptide-encoding DNA abundance (4.5 h post-induction vs induction); higher = less antimicrobial activity (less host growth inhibition)
Details: time post-induction: 4.5 h; library: site-saturation at positions 5, 18, 19, 20
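Further: peptides expressed intracellularly from a pBAD plasmid library in pooled LB shake-flask culture, induced with 0.3% L-arabinose, DNA abundance read by NGS, three biological replicates, DESeq2 with apeglm shrinkage.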

| Sequence | shrunken log2 fold change |
| --- | --- |
| RRIRMRPPRLPRPRPRPFDAPRP | 0.396 |
| RRIRVRPPRLPRPRPRPNPFPRP | -0.104 |
| RRIRDRPPRLPRPRPRPFLWPRP | 0.625 |
| RRIRQRPPRLPRPRPRPIPPPRP | 0.0581 |
| RRIRTRPPRLPRPRPRPYNRPRP | -0.0176 |
| RRIRNRPPRLPRPRPRPCQPPRP | -0.0231 |
| RRIRNRPPRLPRPRPRPVYNPRP | -0.381 |
| RRIRNRPPRLPRPRPRPAGGPRP | 0.16 |
| RRIRYRPPRLPRPRPRPGRQPRP | -0.031 |
| RRIRHRPPRLPRPRPRPHNPPRP | -0.216 |
| RRIRCRPPRLPRPRPRPFVEPRP | -0.507 |
| RRIRSRPPRLPRPRPRPKDPPRP | 0.226 |
| RRIRSRPPRLPRPRPRPFWSPRP | -0.183 |
| RRIRRRPPRLPRPRPRPEVNPRP | -0.0845 |
| RRIRFRPPRLPRPRPRPFGVPRP | -0.166 |
| RRIRYRPPRLPRPRPRPGEPPRP | -0.0235 |
| RRIRERPPRLPRPRPRPMVSPRP | -0.0769 |
| RRIRFRPPRLPRPRPRPECNPRP | 0.0687 |
| RRIRSRPPRLPRPRPRPMNHPRP | -0.256 |
| RRIRQRPPRLPRPRPRPNKFPRP | -0.896 |
| RRIRWRPPRLPRPRPRPMIIPRP | -0.0264 |
| RRIRRRPPRLPRPRPRPEGPPRP | 0.568 |
| RRIRWRPPRLPRPRPRPATIPRP | -0.0366 |
| RRIRNRPPRLPRPRPRPDRPPRP | -0.151 |
| RRIRFRPPRLPRPRPRPKYFPRP | -0.758 |

| Sequence | shrunken log2 fold change |
| --- | --- |
| RRIRCRPPRLPRPRPRPTHKPRP | 0.298 |
| RRIRRRPPRLPRPRPRPWKNPRP | 0.206 |
| RRIRARPPRLPRPRPRPLINPRP | 0.0648 |
| RRIRVRPPRLPRPRPRPVGYPRP | -0.0725 |
| RRIRNRPPRLPRPRPRPDLRPRP | -0.105 |
| RRIRSRPPRLPRPRPRPDPIPRP | -0.0376 |
| RRIRKRPPRLPRPRPRPKRFPRP | -0.0257 |
| RRIRNRPPRLPRPRPRPHRLPRP | -0.00303 |
| RRIRTRPPRLPRPRPRPFCMPRP | -0.24 |
| RRIRHRPPRLPRPRPRPLGFPRP | 0.114 |
| RRIRRRPPRLPRPRPRPAETPRP | -0.0645 |
| RRIRMRPPRLPRPRPRPDNVPRP | -0.0207 |
| RRIRIRPPRLPRPRPRPWWLPRP | -0.0152 |
| RRIRERPPRLPRPRPRPKDLPRP | 0.167 |
| RRIRERPPRLPRPRPRPSRTPRP | -0.111 |
| RRIRIRPPRLPRPRPRPPGWPRP | 0.527 |
| RRIRKRPPRLPRPRPRPSPYPRP | -0.0694 |
| RRIRCRPPRLPRPRPRPYDYPRP | -0.27 |
| RRIRTRPPRLPRPRPRPAWFPRP | 0.131 |
| RRIRPRPPRLPRPRPRPQDCPRP | 0.104 |
| RRIRVRPPRLPRPRPRPIPCPRP | -0.0881 |
| RRIRGRPPRLPRPRPRPCGNPRP | 0.255 |
| RRIRIRPPRLPRPRPRPVLWPRP | 0.199 |
| RRIRQRPPRLPRPRPRPTMGPRP | -0.0283 |
| RRIRNRPPRLPRPRPRPITWPRP | -0.0587 |

| Sequence | shrunken log2 fold change |
| --- | --- |
| RRIRRRPPRLPRPRPRPFLAPRP | 0.925 |
| RRIRHRPPRLPRPRPRPVRRPRP | 0.241 |
| RRIRRRPPRLPRPRPRPTKRPRP | 0.145 |
| RRIRNRPPRLPRPRPRPDMAPRP | -0.0639 |
| RRIRQRPPRLPRPRPRPKRWPRP | 0.0413 |
| RRIRARPPRLPRPRPRPTPFPRP | 0.609 |
| RRIRTRPPRLPRPRPRPPFAPRP | 0.195 |
| RRIRDRPPRLPRPRPRPCRSPRP | -0.0116 |
| RRIRFRPPRLPRPRPRPVITPRP | -0.666 |
| RRIRLRPPRLPRPRPRPLDEPRP | -0.0999 |
| RRIRQRPPRLPRPRPRPRYYPRP | -0.465 |
| RRIRVRPPRLPRPRPRPCAPPRP | -0.22 |
| RRIRNRPPRLPRPRPRPQWCPRP | -0.0662 |
| RRIRNRPPRLPRPRPRPQRHPRP | -0.0566 |
| RRIRCRPPRLPRPRPRPASKPRP | -0.438 |
| RRIRARPPRLPRPRPRPKRKPRP | 0.654 |
| RRIRWRPPRLPRPRPRPYHNPRP | -0.296 |
| RRIRDRPPRLPRPRPRPREFPRP | -0.0261 |
| RRIRTRPPRLPRPRPRPIPMPRP | -0.38 |
| RRIRQRPPRLPRPRPRPVFFPRP | 0.0102 |
| RRIRMRPPRLPRPRPRPFWCPRP | 0.314 |
| RRIRKRPPRLPRPRPRPSFKPRP | -0.0346 |
| RRIRGRPPRLPRPRPRPEAWPRP | 1.91 |
| RRIRERPPRLPRPRPRPSNRPRP | -0.209 |
| RRIRNRPPRLPRPRPRPPEAPRP | 0.0101 |

| Sequence | shrunken log2 fold change |
| --- | --- |
| RRIRLRPPRLPRPRPRPMDAPRP | 0.282 |
| RRIRRRPPRLPRPRPRPPPCPRP | 0.864 |
| RRIRARPPRLPRPRPRPDMCPRP | -0.335 |
| RRIRDRPPRLPRPRPRPIVGPRP | 0.145 |
| RRIRARPPRLPRPRPRPENTPRP | 0.397 |
| RRIRGRPPRLPRPRPRPFNFPRP | 0.0755 |
| RRIRIRPPRLPRPRPRPPEWPRP | 0.0764 |
| RRIRIRPPRLPRPRPRPPRDPRP | 0.203 |
| RRIRRRPPRLPRPRPRPQYCPRP | -0.3 |
| RRIRCRPPRLPRPRPRPQNHPRP | -0.612 |
| RRIRQRPPRLPRPRPRPRLSPRP | 0.0751 |
| RRIRQRPPRLPRPRPRPYGMPRP | -0.549 |
| RRIRERPPRLPRPRPRPCNTPRP | -0.118 |
| RRIRSRPPRLPRPRPRPNVHPRP | -0.312 |
| RRIRRRPPRLPRPRPRPYGQPRP | 0.501 |
| RRIRHRPPRLPRPRPRPKTAPRP | 0.0497 |
| RRIRDRPPRLPRPRPRPFKWPRP | -0.0034 |
| RRIRYRPPRLPRPRPRPYKRPRP | -2.31 |
| RRIRWRPPRLPRPRPRPEHVPRP | 0.0199 |
| RRIRSRPPRLPRPRPRPDLWPRP | 0.349 |
| RRIRMRPPRLPRPRPRPSATPRP | 3.21 |
| RRIRCRPPRLPRPRPRPHWVPRP | -0.0374 |
| RRIRPRPPRLPRPRPRPITGPRP | -0.189 |
| RRIRTRPPRLPRPRPRPTVDPRP | -0.126 |
| RRIRRRPPRLPRPRPRPQQSPRP | 0.273 |

| Sequence | shrunken log2 fold change |
| --- | --- |
| RRIRDRPPRLPRPRPRPDISPRP | 0.0588 |
| RRIRPRPPRLPRPRPRPWPCPRP | 0.0872 |
| RRIRFRPPRLPRPRPRPEWHPRP | -0.28 |
| RRIRSRPPRLPRPRPRPWYNPRP | -0.502 |
| RRIRERPPRLPRPRPRPDAPPRP | 0.0716 |
| RRIRQRPPRLPRPRPRPLLGPRP | 0.158 |
| RRIRRRPPRLPRPRPRPEANPRP | 0.78 |
| RRIRNRPPRLPRPRPRPWYKPRP | -0.00149 |
| RRIRGRPPRLPRPRPRPKQKPRP | -0.0523 |
| RRIRLRPPRLPRPRPRPDQRPRP | 0.274 |
| RRIRPRPPRLPRPRPRPILLPRP | -0.526 |
| RRIRGRPPRLPRPRPRPSHQPRP | -0.0609 |
| RRIRIRPPRLPRPRPRPATKPRP | -0.195 |
| RRIRLRPPRLPRPRPRPRVWPRP | 0.655 |
| RRIRHRPPRLPRPRPRPCFFPRP | -0.193 |
| RRIRSRPPRLPRPRPRPNGLPRP | -0.0247 |
| RRIRRRPPRLPRPRPRPSEQPRP | 0.262 |
| RRIRKRPPRLPRPRPRPMVHPRP | -0.079 |
| RRIRKRPPRLPRPRPRPNDSPRP | -0.042 |
| RRIRSRPPRLPRPRPRPCRCPRP | -0.358 |
| RRIRGRPPRLPRPRPRPATMPRP | 0.44 |
| RRIRIRPPRLPRPRPRPKIPPRP | -0.212 |
| RRIRRRPPRLPRPRPRPVVPPRP | 0.47 |
| RRIRERPPRLPRPRPRPYNWPRP | -0.276 |
| RRIRGRPPRLPRPRPRPGWEPRP | 0.506 |

| Sequence | shrunken log2 fold change |
| --- | --- |
| RRIRLRPPRLPRPRPRPRNRPRP | 0.267 |
| RRIRVRPPRLPRPRPRPASFPRP | 0.115 |
| RRIRQRPPRLPRPRPRPSPGPRP | 0.194 |
| RRIRVRPPRLPRPRPRPNVVPRP | -0.109 |
| RRIRLRPPRLPRPRPRPKKIPRP | -0.104 |
| RRIRTRPPRLPRPRPRPIKNPRP | -0.185 |
| RRIRRRPPRLPRPRPRPESRPRP | 0.0681 |
| RRIRYRPPRLPRPRPRPVWIPRP | -1.23 |
| RRIRFRPPRLPRPRPRPEHAPRP | 0.243 |
| RRIRPRPPRLPRPRPRPPRKPRP | 0.79 |
| RRIRMRPPRLPRPRPRPMEMPRP | 0.515 |
| RRIRCRPPRLPRPRPRPWQIPRP | -0.153 |
| RRIRARPPRLPRPRPRPRIWPRP | 0.164 |
| RRIRCRPPRLPRPRPRPQNDPRP | -0.505 |
| RRIRRRPPRLPRPRPRPWPPPRP | 0.514 |
| RRIRTRPPRLPRPRPRPIFQPRP | -0.192 |
| RRIRMRPPRLPRPRPRPMTGPRP | 0.0472 |
| RRIRERPPRLPRPRPRPMYDPRP | -0.266 |
| RRIRWRPPRLPRPRPRPRMPPRP | 0.395 |
| RRIRLRPPRLPRPRPRPLWTPRP | -0.0559 |
| RRIRFRPPRLPRPRPRPSWPPRP | -0.0802 |
| RRIRERPPRLPRPRPRPMWYPRP | -0.379 |
| RRIRHRPPRLPRPRPRPNLGPRP | -0.00355 |
| RRIRDRPPRLPRPRPRPSCYPRP | -0.302 |
| RRIRYRPPRLPRPRPRPNWFPRP | -0.892 |
